# In patent US20250346643A1, “TROPOMYOSIN KINASE RECEPTOR (TRK) LIGANDS AS THERAPEUTICS TO SUPPORT LIVER REGENERATION” (Vanderbilt University, priority 2024, published 2025):
# Experiments:
# [1] = test system: hepatocytic differentiated human ductal organoids; assay: EdU incorporation in hepatocytic differentiated human ductal organoids (HDO); format: cell-based; conditions: for EdU+ cells compared to vehicle only: 20 ng/ml, 6 hours, William's E without L-glutamine (FIG. 19A-B)
# Method: Human ductal organoids. The normal human liver tissue was obtained through the Cooperative Human Tissue Network (CHTN) at Vanderbilt University Medical Center. The liver was cut into very small pieces in liver digestion medium (Gibco, Waltham, MA; 17703-034). The cell suspension was filtered through a 100-μm cell strainer. The flow through was then centrifuged for 2 min at 100 g, 4° C., and the cell pellet resuspended in ice-cold DMEM (Gibco, Waltham, MA; 11885-084, supplemented by 5% FBS) and centrifuged for 2 min at 300 g. The cell pellet was gently resuspended in Matrigel® (Corning, Corning, NY; 356231) and a […] dome plated in a 24-well plate. The plate was incubated for 10-15 min at 37° C. After solidifying, complete HepatiCult™ Organoid Initiation Medium (OIM) (STEMCELL Technologies, Vancouver, Canada; 100-0384) was added. For passaging, the Matrigel dome was dissociated using TrypLE (Thermo Fisher Scientific, Waltham, MA; 12604013) and incubated at 37° C. for 5 mins. Organoids were washed by resuspending in advanced DMEM/F12 and consecutive resuspension of the organoid pellet. Organoids were resuspended at a 1:10 dilution in Matrigel® and cultured in complete HepatiCult™ Organoid Growth Medium (OGM) (STEMCELL Technologies, Vancouver, Canada; 100-0385) for organoid expansion. For hepatocytic differentiation of hepatic ductal organoids, culture medium was changed to complete HepatiCult™ Organoid Differentiation Medium (ODM) (STEMCELL Technologies, 100-0383) 4 days after passaging. Vehicle, NTF3, BDNF, HGF (20 ng/ml final concentration) or Taletrectinib (Fisher Scientific, Waltham, MA; 502030245, final concentration 10 nM) or torin2 (Fisher Scientific, Waltham, MA; s2817, final concentration 25 nM) were diluted in William's E (without L-glutamine) and added to organoids.
# EdU incorporation and imaging in HDO and mpPHH. A chamber slide was pre-chilled on ice and coated with Matrigel®. Chamber slide was then incubated for 3 min at 37° C. to solidify and organoids plated in 0.02% Matrigel®/complete media into coated chamber slides. Organoids were grown in complete organoid growth media (OGM) for approximately 4 days followed by incubation in organoid differentiation media (ODM) for another 4 days. Organoids were changed to William's E medium 1 day prior to experiment. Vehicle or NTF3, BDNF, HGF (20 ng/ml final concentration each) or Taletrectinib (Fisher Scientific, Waltham, MA; 502030245, final concentration 10 nM) were diluted in William's E (without L-glutamine) and added to organoids. CLICK-iT™ EdU (EdU final concentration […] incubated together with the vehicle, NTF3, BDNF or HGF). After 6 hours, organoids were fixed with 4% paraformaldehyde and permeabilized with 0.5% Triton-X 100. Further processing was performed according to CLICK-ITT EdU manufacturer's instructions. mpPHHs were seeded on collagen coated chamber slides and grown in complete hepatocyte medium (Lonza, Basel, Switzerland). Prior to EdU incorporation assays, mpPHHs were cultured in William's E medium. Vehicle or NTF3, BDNF, HGF (20 ng/ml final concentration each) or Taletrectinib (Fisher Scientific, Waltham, MA; 502030245, final concentration 10 nM) were diluted in William's E (without L-glutamine) and added to mpPHHs. Organoids were imaged in PBS in chamber slides, mpHHs were mounted with fluoromount. Five to fifteen images of random high-power fields were obtained per experiment per treatment and EdU+/Hoechst 33342+ nuclei versus all Hoechst 33342+ nuclei quantified.
# [2] = test system: mouse passaged primary human hepatocytes; assay: EdU incorporation in mouse passaged primary human hepatocytes (mpPHH); format: cell-based; conditions: 20 ng/ml each, 4 hours (FIG. 19E-F)
# Method: Mouse passaged primary human hepatocytes. Mouse-passaged primary human hepatocytes (mpPHHs) were collected as previously described (Michailidis et al., Proc Natl Acad Sci USA. 2020; 117(3): 1678-1688) and cultured in hepatocyte culture media (CC-3198, Lonza, Basel, Switzerland) in collagen-coated chamber slides. Three days before treatment, mpPHH were incubated in William's E media (with L-glutamine). Vehicle, NTF3, BDNF, or HGF (20 ng/ml each) were diluted in William's E (without L-glutamine) and EdU (EdU Cell Proliferation kit, Alexa Flour 555, Thermo Fisher Scientific, Waltham, MA; C10638) was added to each well. mpPHH were incubated for 4 hours and the experiment terminated by fixing the mpPHH in 4% paraformaldehyde/PFA and permeablized with Triton X-100. Click-iT™ EdU staining was then performed according to the manufacturer's instructions. mpPHH were mounted with Flouromount G and imaged with Nikon confocal microscope. 5-15 images per treatment per experiment were randomly taken and EdU positive nuclei quantified.
# EdU incorporation and imaging in HDO and mpPHH. A chamber slide was pre-chilled on ice and coated with Matrigel®. Chamber slide was then incubated for 3 min at 37° C. to solidify and organoids plated in 0.02% Matrigel®/complete media into coated chamber slides. Organoids were grown in complete organoid growth media (OGM) for approximately 4 days followed by incubation in organoid differentiation media (ODM) for another 4 days. Organoids were changed to William's E medium 1 day prior to experiment. Vehicle or NTF3, BDNF, HGF (20 ng/ml final concentration each) or Taletrectinib (Fisher Scientific, Waltham, MA; 502030245, final concentration 10 nM) were diluted in William's E (without L-glutamine) and added to organoids. CLICK-iT™ EdU (EdU final concentration […] incubated together with the vehicle, NTF3, BDNF or HGF). […] Five to fifteen images of random high-power fields were obtained per experiment per treatment and EdU+/Hoechst 33342+ nuclei versus all Hoechst 33342+ nuclei quantified.
Molecule,EdU+ cells compared to vehicle only [1],"EdU+ cells compared to vehicle alone, taletrectinib experiment ([1]; NTF3 20 ng/ml (FIG. 19C-D))",EdU+ nuclei compared to vehicle only [2]
"NTF3: neurotrophin-3, recombinant protein; HSC-derived hepatocyte mitogen, ligand of TRKA, TRKB, TRKC",significantly increased EdU+ cells,significant increase of EdU+ cells,increased EdU+ nuclei
"BDNF: brain-derived neurotrophic factor, neurotrophin specific for TrkB (protein) HSDPARRGELSVCDSISEWVTAADKKTAVDMSGGTVTVLEKVPVSKGQLKQYFYETKCNPMGYTKEGCRGIDKRHWNSQCRTTQSYVRALTMDSKKRIGWRFIRIDTSCVCTLTIKRGR",significantly increased EdU+ cells,–,increased EdU+ nuclei
"HGF: hepatocyte growth factor, complete hepatocyte mitogen used as comparator (protein, UniProt Q08048 33-495; Q08048 496-728, looked up) Hepatocyte growth factor …: QKKRRNTLHEFKKSAKTTLTKEDPLLKIKTKKVNSADECANRCIRNRGFTFTCKAFVFDKSRKRCYWYPFNSMSSGVKKGFGHEFDLYENKDYIRNCIIGKGGSYKGTVSITKSGIKCQPWNSMIPHEHSFLPSSYRGKDLQENYCRNPRGEEGGPWCFTSNPEVRYEVCDIPQCSEVECMTCNGESYRGPMDHTESGKTCQRWDQQTPHRHKFLPERYPDKGFDDNYCRNPDGKPRPWCYTLDPDTPWEYCAIKTCAHSAVNETDVPMETTECIQGQGEGYRGTSNTIWNGIPCQRWDSQYPHKHDITPENFKCKDLRENYCRNPDGAESPWCFTTDPNIRVGYCSQIPKCDVSSGQDCYRGNGKNYMGNLSKTRSGLTCSMWDKNMEDLHRHIFWEPDASKLNKNYCRNPDDDAHGPWCYTGNPLIPWDYCPISRCEGDTTPTIVNLDHPVISCAKTKQLR Hepatocyte growth factor beta …: VVNGIPTQTTVGWMVSLKYRNKHICGGSLIKESWVLTARQCFPARNKDLKDYEAWLGIHDVHERGEEKRKQILNISQLVYGPEGSDLVLLKLARPAILDNFVSTIDLPSYGCTIPEKTTCSIYGWGYTGLINADGLLRVAHLYIMGNEKCSQHHQGKVTLNESELCAGAEKIGSGPCEGDYGGPLICEQHKMRMVLGVIVPGRGCAIPNRPGIFVRVAYYAKWIHKVILTYKL",significantly increased EdU+ cells,–,increased EdU+ nuclei
